This is an account of results in paper PMC5064014, “SUMOylated NKAP is essential for chromosome alignment by anchoring CENP-E to kinetochores” (Nature Communications, 2016).

The target of the experiment is T1, human His-Bub3 full-length recombinant protein (human, UniProt O43684 1-328).
T1 construct: Bub3, human, full-length recombinant protein; also called Recombinant His-Bub3; source: bought: Abcam (ab139802)
The experiment in a line: pull-down; recombinant His-Bub3 incubated with GST, GST-NKAP and its deletion mutants; 50 mM Tris–HCl pH 7.5, 150 mM NaCl, 1 mM EDTA, 0.3 mM dithiothreitol, 0.1% NP-40; overnight at 4 °C; bound protein by immunoblot. The note with it: both partners purified. For orientation: A western blot detects proteins with antibodies after separation by electrophoresis.

T1 sequence (O43684 whole entry): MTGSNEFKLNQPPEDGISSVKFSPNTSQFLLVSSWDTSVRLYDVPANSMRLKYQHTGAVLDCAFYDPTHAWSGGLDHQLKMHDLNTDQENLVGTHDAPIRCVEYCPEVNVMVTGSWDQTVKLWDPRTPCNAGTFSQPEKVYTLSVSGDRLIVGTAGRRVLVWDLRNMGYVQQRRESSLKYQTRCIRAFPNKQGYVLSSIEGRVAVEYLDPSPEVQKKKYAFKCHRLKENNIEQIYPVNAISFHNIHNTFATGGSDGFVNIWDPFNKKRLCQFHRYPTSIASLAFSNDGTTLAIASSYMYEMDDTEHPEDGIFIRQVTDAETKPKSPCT

B1: GST-NKAP deletion mutant aa 139–276 (domain or fragment, human, UniProt Q8N5F7 139-276, looked up)
chain: ELGAPEVWGLSPKNPEPDSDEHTPVEDEEPKKSTTSASTSEEEKKKKSSRSKERSKKRRKKKSSKRKHKKYSEDSDSDSDSETDSSDEDNKRRAKKAKKKEKKKKHRSKKYKKKRSKKSRKESSDSSSKESQEEFLEN
notes: The text names the region; source: E. coli DH5α, purified (glutathione Sepharose 4B)
Turning to B1, the binding result is reported as “binds”.

B2: GST-NKAP deletion mutant aa 1–138 (domain or fragment, human, UniProt Q8N5F7 1-138, looked up)
chain: MAPVSGSRSPDREASGSGGRRRSSSKSPKPSKSARSPRGRRSRSHSCSRSGDRNGLTHQLGGLSQGSRNQSYRSRSRSRSRERPSAPRGIPFASASSSVYYGSYSRPYGSDKPWPSLLDKEREESLRQKRLSERERIG
notes: as for B1
For the molecule B2, the binding result is given as “binds”.
